Results reported in paper PMC10001252.

Columns and labels:
β-lactoglobulin (bovine) [1] = molecular target: β-lactoglobulin (bovine) (UniProt P02754); experiment: ITC; LF (0.25 mM, syringe) injected into βLG (0.1 mM, cell); 10 mM MES pH 5.5, no added NaCl, 25 °C; fitted with PyTC
β-lactoglobulin (bovine) [2] = molecular target: β-lactoglobulin (bovine) (UniProt P02754); experiment: ITC; LF (0.25 mM, syringe) injected into βLG (0.1 mM, cell); 10 mM MES pH 5.5, 5 mM added NaCl, 25 °C; fitted with PyTC
β-lactoglobulin (bovine) [3] = molecular target: β-lactoglobulin (bovine) (UniProt P02754); experiment: ITC; LF (0.25 mM, syringe) injected into βLG (0.1 mM, cell); 10 mM MES pH 5.5, 15 mM added NaCl, 25 °C; fitted with PyTC
β-lactoglobulin (bovine) [4] = molecular target: β-lactoglobulin (bovine) (UniProt P02754); experiment: ITC; LF (0.25 mM, syringe) injected into βLG (0.1 mM, cell); 10 mM MES pH 5.5, 20 mM added NaCl, 25 °C; fitted with PyTC
β-lactoglobulin (bovine) [5] = molecular target: β-lactoglobulin (bovine) (UniProt P02754); experiment: ITC; LF (0.25 mM, syringe) injected into βLG (0.1 mM, cell); 10 mM MES pH 5.5, 2.5 mM added NaCl, 25 °C; fitted with PyTC
β-lactoglobulin (bovine) [6] = molecular target: β-lactoglobulin (bovine) (UniProt P02754); experiment: co-sedimentation + other: turbidity; LF-βLG mixtures (total 0.55 mM) prepared at 0, 100, 200 or 400 mM NaCl and desalted by dialysis (24 h) against 10 mM MES pH 5.5, room temperature; coacervate yield after centrifugation at 28,000 g and HPLC of the supernatant

lactoferrin (natural protein)
Ka (β-lactoglobulin (bovine) [1]): 421000 M⁻¹ | dH (β-lactoglobulin (bovine) [1]): -18.8 kcal/mol | Ka (β-lactoglobulin (bovine) [2]): 275000 M⁻¹ | dH (β-lactoglobulin (bovine) [2]): -14.6 kcal/mol | Ka (β-lactoglobulin (bovine) [3]): 84700 M⁻¹ | dH (β-lactoglobulin (bovine) [3]): -12.1 kcal/mol | Ka (β-lactoglobulin (bovine) [4]): 33200 M⁻¹ | dH (β-lactoglobulin (bovine) [4]): -8.94 kcal/mol | Ka (β-lactoglobulin (bovine) [5]): 972000 M⁻¹ | dH (β-lactoglobulin (bovine) [5]): -24.7 kcal/mol | coacervate yield (β-lactoglobulin (bovine) [6]): 55 to 65%
